Assay results from patent publication US8314210B2, “Compositions and methods for the generation of MHC class II compounds by peptide exchange” (priority 2002, dated 2012).
Peptide text beside a SMILES is read from it. * marks the point of attachment. Dnp = O=[N+]([O-])c1ccc(*)c([N+](=O)[O-])c1; Ahx = NCCCCCC(=O)O

What was measured:
Type in all cases: binding
HLA-DR4 (DRA, DRB1*0401) = target: T1, HLA-DR4 (DRA, DRB1*0401) (Homo sapiens, UniProt P01903+P01911, A100K/A169T/F76Y/I96L/K127E/L162R/M171V/N62H/P40V/Q125Y/R42H/S133A/S149N/S66Y/V115G/V209L/W38E); experiment: biochemical; details: Table 2, DRB1*0401, read-out: (μM) [head prints unit only
T1 construct: were attached to the 3′ end of the DRα and DRβ ectodomains; CLIP peptide […]; made in house

DRB1*0401 = target: T2, DRB1*0401 (Homo sapiens, UniProt P01903+P01911, A100K/A169T/F76Y/I96L/K127E/L162R/M171V/N62H/P40V/Q125Y/R42H/S133A/S149N/S66Y/V115G/V209L/W38E); details: 3.3 μM *DR/CLIP, 50 μM DNP-labeled peptide, pH 5.2, overnight 30° C.
T2 construct: were attached to the 3′ end of the DRα and DRβ ectodomains; CLIP peptide […]; made in house

DR4 = target: T3, DR4 (Homo sapiens, UniProt P01903+P01911, A100K/A169T/F76Y/I96L/K127E/L162R/M171V/N62H/P40V/Q125Y/R42H/S133A/S149N/S66Y/V115G/V209L/W38E); experiment: Kinetics of CLIP dissociation and peptide association; details: DR4, pH 5.2
T3 construct: CLIP peptide […]; made in house

DR4 (DRA, DRB1*0401) = target: T4, DR4 (DRA, DRB1*0401) (Homo sapiens, UniProt P01903+P01911, A100K/A169T/F76Y/I96L/K127E/L162R/M171V/N62H/P40V/Q125Y/R42H/S133A/S149N/S66Y/V115G/V209L/W38E); experiment: Competition assay of HCV peptides, biotinylated HA (306-318) on thrombin-cleaved DR4/CLIP; details: competitor 30 nM to 10 μM vs 30 nM labeled HA peptide
T4 construct: were attached to the 3′ end of the DRα and DRβ ectodomains; CLIP peptide […]; made in house

Compound: CC[C@H](C)[C@H](NC(=O)[C@H](CC(N)=O)NC(=O)[C@H](CCCCN)NC(=O)[C@H](Cc1ccccc1)NC(=O)[C@H](Cc1ccccc1)NC(=O)[C@H](Cc1c[nH]cn1)NC(=O)[C@@H](NC(=O)[C@@H](NC(=O)CCCCCNc1ccc([N+](=O)[O-])cc1[N+](=O)[O-])C(C)C)C(C)C)C(=O)N[C@H](C(=O)N[C@H](C(=O)N1CCC[C@H]1C(=O)N[C@@H](CCCNC(=N)N)C(=O)N[C@H](C(=O)N1CCC[C@H]1C(=O)N1CCC[C@H]1C(=O)O)[C@@H](C)O)[C@@H](C)O)C(C)C [MBP(88-102)] ({Dnp-Ahx}-VVHFFKNIVTPRTPP-OH)
- IC50 (HLA-DR4 (DRA, DRB1*0401)): 0.3 µM

Compound: CC[C@H](C)[C@H](NC(=O)[C@H](CCC(N)=O)NC(=O)[C@H](CCC(=O)O)NC(=O)CCCCCNc1ccc([N+](=O)[O-])cc1[N+](=O)[O-])C(=O)NCC(=O)N[C@@H](Cc1c[nH]c2ccccc12)C(=O)N[C@@H](CCSC)C(=O)N[C@H](C(=O)N[C@@H](CC(N)=O)C(=O)N[C@@H](CC(N)=O)C(=O)N1CCC[C@H]1C(=O)N1CCC[C@H]1C(=O)N[C@H](C(=O)N1CCC[C@H]1C(=O)N[C@H](C(=O)NCC(=O)O)C(C)C)[C@@H](C)CC)[C@@H](C)O [p24 (113-127)] ({Dnp-Ahx}-EQIGWMTNNPPIPVG-OH; C-terminus assumed)
- Loading Efficiency (%) (DRB1*0401): 79%

Compound: CC[C@H](C)[C@H](NC(=O)[C@H](CO)NC(=O)[C@@H](NC(=O)[C@@H]1CCCN1C(=O)[C@H](CO)NC(=O)[C@H](Cc1ccc(O)cc1)NC(=O)[C@H](CCSC)NC(=O)[C@H](CCCNC(=N)N)NC(=O)[C@@H](NC(=O)[C@@H](NC(=O)[C@H](CCCCN)NC(=O)[C@H](CC(N)=O)NC(=O)[C@H](CC(C)C)NC(=O)CCCCCNc1ccc([N+](=O)[O-])cc1[N+](=O)[O-])[C@@H](C)CC)C(C)C)C(C)C)C(=O)O [p24 (138-150)/Val] ({Dnp-Ahx}-LNKIVRMYSPVSI-OH; C-terminus assumed)
- Loading Efficiency (%) (DRB1*0401): 90%

Compound: CGGGPVSKMRMATPLLMQA [Alexa-488 labeled CLIP peptide]
- time by which almost all of the bound CLIP peptide had dissociated (DR4): ≤ 30 min

Compound: aa 1241-1260: HCV peptide aa 1241-1260 tested for DR4 binding, printed with SEQ ID NO:19 (GYKVLVLNPSVAATL; listed as Homo sapiens)
- binding to DR4 (DR4 (DRA, DRB1*0401)): bound to DR4

Compound: aa 1581-1600: HCV peptide aa 1581-1600 tested for DR4 binding, printed with SEQ ID NO:20
- binding to DR4 (DR4 (DRA, DRB1*0401)): bound to DR4

Compound: aa 1771-1790: HCV peptide aa 1771-1790 tested for DR4 binding, printed with SEQ ID NO:21 (SGIQYLAGLSTLPGNPAIASL; listed as Homo sapiens)
- binding to DR4 (DR4 (DRA, DRB1*0401)): bound to DR4
